In patent publication US20160207996A1 (ARGEN X N V, published 2016):

How the values were obtained:
Nt-GCGR-hFc [1] = molecular target: T1, Nt-GCGR-hFc (human, UniProt P47871 26-136); experiment: ELISA with a titration of biotin-Nt-GCGR (x axis) against the mAbs, OD620
T1 construct: domain: N-terminal domain; also called Nt-GCGR-Fc; recombinant N-terminal domain of GCGR; not shown: hFc

Nt-GCGR-hFc [2] = molecular target: T1, Nt-GCGR-hFc; experiment: mAb binding ELISA on coated Nt-GCGR-hFc
Method: Binding to GCGR- and CXCR4-lipoparticles (negative control) (A) and binding to Nt-GCGR-hFc (B). Lipoparticles were coated at 10 U/well. Nt-GCGR was coated at 1 μg/ml. mAbs were allowed to bind to the coated target at 1 μg/ml.

T1 sequence (P47871 26-136): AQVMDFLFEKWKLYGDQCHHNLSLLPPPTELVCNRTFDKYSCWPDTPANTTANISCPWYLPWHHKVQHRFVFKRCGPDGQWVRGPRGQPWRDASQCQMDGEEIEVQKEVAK

Row | binding result (Nt-GCGR-hFc [2]) | Binder | binding result (Nt-GCGR-hFc [1])
1 |  | mAb 6A5 (antibody, IgG1, V domains shown) VH: EVQLQESGGGSVQPGGSLRLSCAASGFTFSANAMTWVRQAPGKGLEWVSAISGTGASTSYADSVKGRFTVSRDNAKNTLYLQVNNLKPEDTAVYRCAKLGGDTWYMEYWAKGTLVTVSS VL: SYELTQSPSVSVALRQTAKITCGGDNIGSKYVNWYQQKPSQTPVLVIYKDSNRPSGIPERFSGSNSGNTAALTISGAQAEDEADYYCQVWDGSAAVFGGGTHLSVLG | no binding (tested: about 20 ng/ml biotin-Nt-GCGR)
2 | no binding (tested: 1 µg/ml) | mAb 6B7 (antibody, IgG1, V domains shown) VH: QLQLVESGGGLVQPGGSLRLSCAASGFTFSSNAMTWVRQAPGKGLEWVSAISSTGNSITEADSVKGRFTISRDNAKNMLYLQMNSLKPEDTAVYYCAKLGGDTWYMEYWGQGTQVTVSS VL: SSALTQPSAVSVSLGQTARITCQGDNFGSIDPHWYQQKPGQDPVVVIYQYNNRPSGIPERFSGLKSGNTATLIISGAQAEDEADYYCQLWDSRAKAVFGGGTHLTVLG | 
3 | no binding (tested: 1 µg/ml) | mAb 6D8 (antibody, IgG1, V domains shown) VH: QLQLVESGGGLVQPGGSLRLSCAASGFTFSSNAMTWVRQAPGKGLEWVSAISSTGNSITEADSVKGRFTISRDNAKNMLYLQMNSLKPEDTAVYYCAKLGGDTWYMEYWGQGTQVTVSS VL: SYELTQSPSVSVALRQTAKITCGGNGIGSKIVHWYQQKPGQAPVLVIYADVRRPSEIPERFSGSNSGDTATLTVSGAQAEDEADYYCQVWDSSANAAVFGGGTHLTVLG | 
